From patent US20250277018A1 (published 2025)

Legend:
Assay in all cases: ELISA
[1] = target: 4A01v1
[2] = target: 4A01v3-7
[3] = target: 4A01v3-8
[4] = target: 4A01v3-3
[5] = target: 4A01v3-4
[6] = target: 4A01v9
[7] = target: 4A01v3
[8] = target: 4A01v3-1
[9] = target: 4A01v3-5
[10] = target: 4A01v5
[11] = target: 4A01v4
[12] = target: 4A01v6
[13] = target: 4A01v8

Kd [1]: 0.184 nM
Kd [2]: 0.123 nM
Kd [3]: 0.169 nM
Kd [4]: 0.152 nM
Kd [5]: 0.252 nM
Kd [6]: 0.144 nM
Kd [7]: 0.162 nM
Kd [8]: 0.13 nM
Kd [9]: 0.162 nM
Kd [10]: 0.26 nM
Kd [11]: 0.32 nM
Kd [12]: 0.273 nM
Kd [13]: 0.328 nM
B1: rat (other)
chain: EAHKSEIAHRFKDLGEQHFKGLVLIAFSQYLQKCPYEEHIKLVQEVTDFAKTCVADENAENCDKSIHTLFGDKLCAIPKLRDNYGELADCCAKQEPERNECFLQHKDDNPNLPPFQRPEAEAMCTSFQENPTSFLGHYLHEVARRHPYFYAPELLYYAEKYNEVLTQCCTESDKAACLTPKLDAVKEKALVAAVRQRMKCSSMQRFGERAFKAWAVARMSQRFPNAEFAEITKLATDVTKINKECCHGDLLECADDRAELAKYMCENQATISSKLQACCDKPVLQKSQCLAEIEHDNIPADLPSIAADFVEDKEVCKNYAEAKDVFLGTFLYEYSRRHPDYSVSLLLRLAKKYEATLEKCCAEGDPPACYGTVLAEFQPLVEEPKNLVKTNCELYEKLGEYGFQNAVLVRYTQKAPQVSTPTLVEAARNLGRVGTKCCTLPEAQRLPCVEDYLSAILNRLCVLHEKTPVSEKVTKCCSGSLVERRPCFSALTVDETYVPKEFKAETFTFHSDICTLPDKEKQIKKQTALAELVKHKPKATEDQLKTVMGDFAQFVDKCCKAADKDNCFATEGPNLVARSKEALA
